Measured values reported in US20190092852A1 (Genentech, published 2019).
Changes are numbered by the printed parent chain. Several values for one entry are separate records, joined by “and”; a condition that tells them apart may be missing. Equal entries are not always repeated.

B1: 2B6 (antibody, V domains shown)
VH: EVLLQQSGPELVKPGASVKISCNASGYTFSDYNMNWVKQSHGKSLESIGDINPKNGDTFYNQNFKDKATLTIDKSSSTVYMELRSLTSEDTAMYYCARHYYYGSSYGGFVYWGQGTLVTVAA
VL: DIQMNQSPSSLSASLGDTITITCHASQNINVWLSWYQQKAGNNPKLLIYAASKLHTGVPSRFTGSGSGTLFTLTISSLQPEDIATYYCQQGQSYPLTFGSGTNLELK
notes: Murine hybridoma clone (Balb/C)
B2: 4G12.FW4 (antibody, V domains shown)
VH: ELQLQESGPGLVKPSETLSLTCTVSGGSIRSSIFYWGWIRQPPGKGLEWIGSIYYSGRTYYNPSLKSRVTISVDTSKNQFSLMLTSVTAADTAVYYCARAGGLYNWNDESFSFYMDVWGQGTTVTVSS
VL: EIVLTQSPGTLSLSPGERATLSCRASQSFSSSYLAWYQQKPGQAPRLLIYGASSRATGIPDRFSGSGSGTDFTLTISRLEPEDFAVYYCQQYDRSPLTFGGGTKVEIK
notes: Derivative of 4G12
B3: 101.B11 (antibody, V domains shown)
VH: QVQLVQSGGGLVQPGGSLKLSCAASGFTFSGSAMHWVRQASGKGLEWVGRIRSRNNNYATAYAASVKGRFTISRDDSKRTTYLQMNSLKTEDTAVYYCTRLQQPPFDYWGQGTLVTVSS
VL: DIQMTQSPSSLSASVGDRVTITCRASQGIRNDLDWYQQKPGKAPKRLIYAASSLQSGVPSRFNGSGSGTEFTLTISSLQPEDFATYYCLQHDSYPLTFGGGTKVEIK
notes: Transgenic mouse / phage display
B4: H4H9660P (antibody, V domains shown)
VH: EVQLVESGGGLVQPGGSLRLSCAASGITLSSYGMSWVRQAPGKGLEWVASIFGSGGGPYYADSVKGRFTMSRDNSKNTLYLQMNSLRAEDTAVYYCAKDRYSGSYYGGFDYWGRGTLVTVSS
VL: DIQMTQSPSSVSASVGDRVTITCRASQGITSWLAWYQQKPGKAPTLLIYAASSLQTGVPSRFSGSGSGTDFTLTISSLQPEHFATYYCQQANSFPPTFGGGTKVEIK
B5: H4H9671P (antibody, V domains shown)
VH: EVQLVESGGGLVQPGGSLRLSCAASGFTLRSYFMTWVRQVPGKGLEGVSAISGISGGTYYTDSVKGRFTISRDNSKNTLFLQMNSLRAEDTAVYFCARTVYSSSYYGGFQHWGQGTLVTVSS
VL: B4 VL with A13V, T30S, T45K, A50V, T56S, H82D, A91T, P96L
B6: H4H9662P (antibody, V domains shown)
VH: EVQLVESGGGLVQPGGSLRLSCAASGFTFSSYALTWVRQAPGKGLEWVSFISGSGGRPFYADSVKGRFTISRDNSKNMLYLQMNSLRAEDTAIYYCAKSLYTTSWYGGFDSWGQGTLVTVSS
VL: B4 VL with I29V, T30V, T45K, T56S, H82D, A91S, P96F, F98L, G100P, E105D
B7: H4H9663P (antibody, V domains shown)
VH: QVQLVQSGAEVKKPGASVKVSCKASGYTFTGHYMYWMRQAPGQGLEWMGWINPNSGGTNYAQKFQDRVTMTRDTSISTAYMELSRLRSDDTAVYYCARGRYGSSWYGGFEYWGQGTLVTVSS
VL: B4 VL with T45N, S52A, T56S, H82D, A84T, N92Y, F94L, P96L
B8: H4H9665P (antibody, V domains shown)
VH: EVQLVESGGGLVQPGGSLRLSCAASGFTFSNYAMTWVRQAPGKGLEWVSTISGSGDNTYYADSVQGRFTISRGHSKNTLYLQMNSLRAEDTAVYYCAKPTYSRSWYGAFDFWGQGTMVTVSS
VL: B4 VL with T30S, T45Q, S53R, T56S, S63W, H82D, S93N, P96F, G100P, E105D

Molecular target: T1, human IL-33 (cell-based blocking assay of Example 2) (human, UniProt O95760 112-270)
T1 sequence (looked up): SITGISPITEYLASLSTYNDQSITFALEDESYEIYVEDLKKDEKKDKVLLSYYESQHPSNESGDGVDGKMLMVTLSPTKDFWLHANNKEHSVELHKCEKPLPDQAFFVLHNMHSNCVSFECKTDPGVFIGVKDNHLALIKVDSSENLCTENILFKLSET
Test: cell-based or functional assay

Binder | Cell assay (hu) IC90
B1 | 0.02 µg/mL and 0.13 nM
B2 | 0.17 µg/mL and 1.12 nM
B3 | 0.3 µg/mL

Molecular target: T2, cyno IL-33 (cell-based blocking assay of Example 2) (cynomolgus monkey, UniProt A0A2K5W3I1 95-269)
T2 sequence: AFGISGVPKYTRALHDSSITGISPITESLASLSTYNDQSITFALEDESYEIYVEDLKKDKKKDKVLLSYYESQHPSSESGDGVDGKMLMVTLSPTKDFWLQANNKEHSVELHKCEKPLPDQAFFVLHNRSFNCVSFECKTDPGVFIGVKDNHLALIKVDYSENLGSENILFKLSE
Test: cell-based or functional assay

Binder | Cell assay (cy) IC90
B1 | 0.526 µg/mL and 3.47 nM
B2 | 0.034 µg/mL and 0.224 nM

Molecular target: T3, biotinylated cyno IL-33 (cynomolgus monkey, UniProt A0A2K5W3I1 112-269, biotin-labeled with EZ-LINK NHS-PEG4-Biotin)
T3 construct: also called biotin-cyIL-33
T3 sequence: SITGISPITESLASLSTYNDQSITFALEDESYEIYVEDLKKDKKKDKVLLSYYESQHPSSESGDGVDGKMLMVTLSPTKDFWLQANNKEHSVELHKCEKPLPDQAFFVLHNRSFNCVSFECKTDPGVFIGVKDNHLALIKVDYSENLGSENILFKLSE
Test: competitive ELISA, biotin-cyIL-33 to coated hST2-Fc
Experimental: The ability of the anti-IL-33 antibody 10C12.38.H6.87Y.58I IgG4 and each anti-IL-33 antibody listed in Table 5 (RG1-RG20) to block either human IL-33 or cyno IL-33 binding to human ST2 receptor was tested in a competitive binding ELISA. Briefly, 1 μg/ml of recombinant human ST2-Fc chimera protein prepared in coating buffer (50 mM sodium carbonate, pH 9.6) was coated on a 384-well MAXISORP® plate (Nalgene Nunc International; Rochester, N.Y.) and incubated overnight at 4° C. On the next day, non-specific binding was blocked with PBS containing 0.5% (w/v) solution of bovine serum albumin (BSA). Fixed concentrations of biotinylated human or cyno IL-33 prepared in assay buffer (25 mM PBS, pH 7.2, 0.1% BSA, 0.05% TWEEN®-20) were mixed with an equal volume of serially-diluted anti-IL-33 antibodies or assay buffer alone and incubated for 1 h at room temperature. The final assay concentrations of biotinylated human IL-33 or cyno IL-33 were 20 pM and 45 pM, respectively, and the final assay concentration of each antibody ranged from 0-300 nM. The pre-mixed solutions were added to the ST2-Fc coated plate and incubated for 1 h at room temperature. The binding of biotinylated IL-33 to coated ST2-Fc was detected by the sequential addition of Streptavidin Poly-HRP80 (Fitzgerald; Buckinghamshire, UK) and 3,3′,5,5′-tetramethyl benzidine (TMB) Microwell Peroxidase Substrate System (KPL; Gaithersburg, Md.). The absorbance (450 nm) was recorded using a […] ASCENT® plate reader (Thermo Scientific; Rockford, Ill.). The binding activity (%) of biotin-IL-33 to ST2 in the presence of anti-IL-33 was plotted as a function of antibody concentration. The data generated were fitted to a four-parameter equation to determine IC₅₀ values for each antibody (FIGS. 25A and 25B) using Prism software (Graphpad Software; La Jolla, Calif.). The maximum blocking (%) of each antibody was calculated as the ratio of the reduction in signal measured in the presence of antibody relative to the difference between the signal with IL-33 alone and background measurements.

Binder | IC50 [nM] | Maximum Blocking [%]
B4 | 120 | 18
B5 | 70 | 40
B6 | 66 | 47
B7 | 26 | 61
B8 | 19 | 53

Molecular target: T4, cyno IL-33 N-His (cynomolgus monkey)
T4 chain: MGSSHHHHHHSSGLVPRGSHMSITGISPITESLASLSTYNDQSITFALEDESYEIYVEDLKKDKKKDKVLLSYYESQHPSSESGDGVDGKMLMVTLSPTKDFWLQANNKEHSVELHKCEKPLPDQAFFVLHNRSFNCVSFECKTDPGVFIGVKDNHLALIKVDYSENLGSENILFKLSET
Test: SPR Biacore T200, 37 C
Experimental: (§1) The binding kinetics of the anti-IL-33 antibody 10C12.38.H6.87Y.58I IgG4 and each anti-IL-33 antibody listed in Table 5 (RG1-RG20) to IL-33 were measured using surface plasmon resonance (SPR) on a BIACORE® T200 instrument (GE Healthcare). Anti-human Fc or anti-murine Fc (GE Healthcare, #BR-1008-39 or BR-1008-38, respectively) was immobilized on a CM5 sensor chip via amine-based coupling according to the manufacturer's protocol. Surfaces were used to capture monoclonal human IgG4 and monoclonal murine IgGs for kinetic studies. Antibody binding was measured to human IL-33 (R&D systems, #3625-IL-010/CF) and cyno IL-33 N-His (SEQ ID NO: 317) (Genentech, Inc.). A three-fold concentration series of cytokine with a range of 3.7 to 100 nM was used for the experiments. Sensograms for binding of IL-33 were recorded using an injection time of 4 min with a flow rate of 30 μl/minute with a running buffer of 0.01 M N-(2-Acetamido)iminodiacetic acid (ADA) pH 7.4, 0.15 M NaCl, 3 mM EDTA, and 0.05% TWEEN®-20. After injection, disassociation of the ligand from the antibody was monitored for 10 min in running buffer. The surface was regenerated in between cycles with an injection of 3 M magnesium chloride or Glycine-HCl pH 1.7. All binding experiments were performed at a temperature of 25′C and 37° C. After subtraction of a blank which contained running buffer only, sensograms observed for IL-33 binding to anti-IL-33 antibodies were analyzed using a 1:1 Langmuir binding model with software supplied by the manufacturer to calculate the kinetics and binding constants, including the dissociation constant (KD). Dissociative half-lives (t_{1/2}) were calculated from the kinetic rate constants. KD (M)=koff/kₒₙ and t_{1/2} (min)=ln(2)/(60*koff). […] In Tables 6-9, *IC indicates the result is inconclusive due to weak capture of antibody was observed, leading to poor binding data.

Binder | Kd [nM] | koff [s⁻¹] | kon [M⁻¹ s⁻¹] | t1/2 [min]
B4 | 7.93 | 0.00305 | 385000 | 4
B5 | 3.66 | 0.00326 | 890000 | 4
B6 | 2.31 | 0.00112 | 484000 | 10
B7 | 1.03 | 0.00202 | 1.96e+06 | 6
B8 | 1.96 | 0.00142 | 727000 | 8

Molecular target: T5, cynomolgus monkey N-terminal 6-His-tagged and C-terminal Avi-tagged IL-33 (S112-T270) (cynomolgus monkey)
T5 chain: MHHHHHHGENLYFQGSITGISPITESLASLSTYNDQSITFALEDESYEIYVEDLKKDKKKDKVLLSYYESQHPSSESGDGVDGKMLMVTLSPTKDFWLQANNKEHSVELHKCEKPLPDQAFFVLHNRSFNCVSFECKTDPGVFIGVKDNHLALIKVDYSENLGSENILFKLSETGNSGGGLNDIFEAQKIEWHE
Test: cell-based or functional assay

Binder | IC50; SEAP reporter (OD 620), HEK-BLUE IL-33/IL-1beta cells, 5 pM cyno IL-33 (5pM cIL-33-Nhis) [M]
B4 | 4.8e-08
B5 | 5e-08
B6 | 3.4e-08
B7 | 2.3e-08
B8 | 1.1e-08

Molecular target: T4, cyno IL-33 N-His
Test: SPR Biacore T200, 25 C
Experimental: as §1

Binder | Kd [nM] | koff [s⁻¹] | kon [M⁻¹ s⁻¹] | t1/2 [min]
B4 | 2.69 | 0.00064 | 238000 | 18
B5 | 1.72 | 0.000915 | 533000 | 13
B6 | 1.28 | 0.000313 | 245000 | 37
B7 | 1.07 | 0.000545 | 511000 | 21
B8 | 0.976 | 0.000426 | 437000 | 27

Molecular target: T6, human IL-33 (Genentech, huIL33.his) (human, UniProt O95760 112-270)
T6 sequence (looked up): T1 sequence (looked up)
Test: SPR Biacore

Binder | Kd [nM]
B1 | 0.03
B2 | 0.038
B3 | 0.527

Molecular target: T7, cyno IL-33 (construct not stated) (cynomolgus monkey, UniProt A0A2K5W3I1 112-269)
T7 construct: also called cynomolgus IL-33; cyno IL-33 (Genentech)
T7 sequence: T3 sequence
Test: SPR Biacore

Binder | Kd [nM]
B1 | 0.33
B2 | 0.07
B3 | 0.783
